In the supplement of paper PMC9170038:

Each sequence was assayed on K4 kissing-loop RNA reporter (assay: apparent KD of K4 kissing-loop reporter; higher = weaker reporter binding). Conditions: Eterna round: R107; input ligand: FMN 200 uM.
Procedure: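 RNA-MaP round R107: designed RNA switches with theophylline, tryptophan, arginine or FMN aptamers are transcribed on-chip within common flanks. They are titrated with a labelled K4 kissing-loop RNA reporter in RNA-MaP buffer (100 mM Tris pH 7.5, 80 mM KCl, 4 mM MgCl2), without ligand or with the indicated ligand. Median apparent KD per design.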
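Also: bound reporter read as fluorescence of individual clusters on recovered sequencing chips by microscopy, with normalized cluster intensities fitted with a binding model.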

Row | Sequence | apparent KD of K4 kissing-loop reporter [nM]
1 | AUUUUGGUUGAAGGAUAUUCUCCCAUCGACGCGAUAAGAUACUUUGGAAGGUUUGCAGUGAUGUUGGAAGAAGGUCAAAGUUGUA [theeternabot_exclusion_KL_FMN_B_22] | 479
2 | ACGAUCAUGGCAGGAUAUACGAAUGCAUUAGGGCUGCCAGUGAUGUUGGUGGACCGAGGACGUAGAGUAGAAGGGCCGACUUAAA [Leonmain] | 138
3 | GUAUAUUAGGGAGACCUAAUAUAAAUAGAAGGAGCGUAGGAAACUACAGGUAGGUCGCUAAAUAUACAGUGAUGUUGUAUAAUGG [arg a same] | 183
4 | AUGGGCGAGGUAACGUGGAUAUCUCGUCGCAAGGAUAUCUGGAAACAGAGAAGGUGCUACAUUACCGGCAGUGAUGUUGCUGACC | 959
5 | UUAGAGAUCUCAGGAUAUCAGUGAUGUUGUAAUCCAGAUCUGAGAUAGAAUUCUAUCUCAGAUCAAUGAGAAGGGAGAUCUCAUU [AK4.2 Exc FMN B] | 306
6 | CGCCGCAAGGCGGUCCUGCCCACUCCGGAAGGAGCGCCCGCAAGGGCAGGUAGGUCGCCGGAGUGAUGUUCCGGUGGCAGGACCG [#2 Exclusion - Arginine A Attempt #4 (Inspired by Omei)] | 477
7 | UCACAAGUUAACUAGUGAUGUUAGUUAGUACGAGGACCGGUACGGCCGCCACUCGAAAAGUGGUUUUACGGACUUUUGGGCAGGC [theeternabot_sameState_KL_Trp_A_17] | 337
8 | GUAGACAGACUGCAAGCCUAGUCUACAGACUAGGAUAUCAGGAAACUGAGAAGGAGUCUAGUUGCAGUGAUGUUGCAAGAAUAAU [KL-SSFMN-A24] | 120
9 | UAGCUCUACAGAAGGAGCGACGUUCUUAGACAGUGAUGUUGUCUAUAGUGAAUAUAGGAACGUCAGGUAGGUCGCUGUAGAGCUA [Arg B SS t11] | 213
10 | UUAUCACCCUAAGGAUAUAGCUAAGUGAUGUUUAGCUCGUCGCAGGGUAAACACUAGGCCCAAAGGCUAGAAGGUAGCUGGUACC [theeternabot_exclusion_KL_FMN_B_35] | 70.6
11 | CUGGGUUGACGAAAAGUCAACAAAUGAGAAGGAGCGCACGAAAGUGCAGGUAGGUCGCUCAAUCCAGUGAUGUUGGAUCAUCCAG [#SwitchBubble 12 #K4Late] | 571
12 | AUGUUUUAUAAACUCAUGGUUUCGACAGAUACCAGCUUCGAGAGGAGCCCUUGGCAGCUGCAUGAGUGAUGUUCAUGUACGAAGA [KL-XTheoA7] | 374
13 | UGCGCUGCCUGAGGAUAUAGAAACGAGUGAUGUUCGUGGAUAAGAGCCAGUGAUGUUGGGUUAUUUCUAGAAGGCAGGCAAAGUA [Exclusion FMN B GF7] | 108
14 | UGUCAUUGGUCGGCCGCCACUCCAUAACGAGUGAUGUUCUAAAAGACGGAUCGAAAGAUCUGUCGGAGGACCGGGACCGAUGACU [FiskerMod 6 - Jieux - Same State - Tryptophan B] | 558
15 | CCUGCCAGCACGGCCGCCACUUCUAUUGUAUCUAUUUUUGUAAUCCUUUAGGAGUGAUGUUUUUAAAGGACCGGGUGAUGGCUGA [theeternabot_exclusion_KL_Trp_B_14] | 446
16 | AGAAGAGUGAUGUUCUUCUAUAUCUCAGAAGGAGCGACAUUAAUGUCAGGUAGGUCGCUGAGAUGAAAUCUCACACAGAUCUUGG [Arg A SS t8a] | 145
17 | UCGCAUCUCAGAAGGAGCGACAGUGAUUCUGAUAGAAAUCUGAGUGAUGUUCAGAACAGCUGUCAGGUAGGUCGCUGAGAUGCGA [Arg B Ex t8] | 813
18 | AAGGGCGGGACUUCCUCGCCGGAUAGAGAUACCAGCCCUGCAAAGGGCCCUUGGCAGCUCACUGACCUCAGUGAUGUUGAGGUUC [Maanveri] | 252
19 | CCCGCGUCGUUAGUGAUGUUGACUUCUGAUACCAGUCGCAGGUAGGACCCUUGGCAGCAGCAGUUUUGUUAUAUGUAGGAUCCAG [theeternabot_exclusion_KL_Theo_A_36] | 727
20 | UCCUACGAGGUAACGUGGAUAUCUCGUUGCAAGGAUAUCUGGAAACAGAGAAGGUGCAACAUUAUCAGCAGUGAUGUUGCUGACC | 215
21 | AGUAUGUAAUAUGGCAUAUUUAGAACUGAAGGAGCGCCGAAUAAGGCAGGUAGGUCGCGGAAAUAUGAGUGAUGUUCAUGUUUAA [KL-SSArg-A25] | 88
22 | GGUAGCAUGGCGGCCGCCACUACAAGUAGUGACCCAAGUGAUGUUUGGAAGCGGGUCCUAAUUGGUAGGACCGGGCCAUGCUACC | 509

Row | Sequence | apparent KD of K4 kissing-loop reporter [nM]
23 | AGGAUGUAGUGAUGUUAUAUAAGAAGUAAACGAGGACCGGUACGGCCGCCACUCGAAGCGGCUACUAGCGCGUUGCGAGGUGUGC [ExTryptoA.Ce] | 492
24 | UCAAACGAUGGAAGGAGCGCUCGUCAGUCCUGCGAGUGAUGUUCGUGGGUAAAUAGUCGCGAGCAGGUAGGUCGCCAUCUUAAGC [Bisodi] | 135
25 | AUUAAUUUCAGAGGAUAUCGUAAUUUUAUUUAAUUUAUUCAUUUAUGCAGUGAUGUUGCUAAUAUUCGAGAAGGCUGAUUUAUAA [JR_ExcFMNB_Sub007] | 103
26 | CGCACACUUGUUGAUACCAGAAGCCGACCGGAAACAUCAUUGAGUGAUGUUCAAGCUGUUUUCCCUUGGCAGCAAACGAGUGGUC [theeternabot_exclusion_KL_Theo_B_22] | 150
27 | GGGCUGGUGCUAGGAUAUGCGAUGAAUGCUCAGGAAACCUUGAGUCCGCAGUGAUGUUGCGGCACCGCAGAAGGAGCUUAGGCUC [Esbequ] | 146
28 | CAUAUAUACACUAACCCGUACGGUAGUAAGCGAGGACCGGUACGGCCGCCACUCGAUCGUUUCGUGUUAGCACCAGUGAUGUUGG [theeternabot_sameState_KL_Trp_A_3] | 461
29 | CCAGCGGGCACGGCCGCCACUCUCUCGAGUGAUGUUUGCGGAGUCAGGCCGGCUCAGUACGUCACGAGGACCGGGUGCAAUUUAC [theeternabot_exclusion_KL_Trp_B_40] | 986
30 | ACGUAUAUCAGAGGAUAUCGUAUUAAUAUUUUAUCUAUAUAUAUAUGCAGUGAUGUUGCUAUAAUUCGAGAAGGCUGAUUUACGA [JR_ExcFMNB_Sub011] | 109
31 | UUUAUAAAGUCGGCCGCCACUGGAUUUAUAUUUGUUUAAUCUGGAUCAAAGUGAUGUUUUGAGUCCAGGACCGGGACAUUUGUUA [JR_ExcTryptoB_Sub002] | 125
32 | GAGGGCCCUGUAGGAUAUGAGUCUAGUGAUGUUAGGCGGUCCAUGCGCGUGGCGCGUUAUGCCCUUUUAGAAGGACAGGGCUCUC [#2 Exclusion - FMN B Attempt #21 (HarryS)] | 109
33 | ACGCUAGCUACCGAAAGGUAGCUAGCGAGUGAGGAUAUGUGGAAACACAGAAGGCACAGCGCAGUGAUGUUGUGCGGCGGAAGCG [whbob_SS_FMNA__2th168] | 604
34 | UGUGAUGAGUAGAGUGAUGUUUUGAAGGAUACCAGAGUGUUGUUAUUCCCUUGGCAGCUUGAGUGAUGUUUGAUGUUGUUGUUGU [rcrrmullin] | 328
35 | UAGUGGUAGACCAGAUCUACCACUAGGGAUACCAGCCUCGGUCGAGGCCCUUGGCAGCCCAGCGGGUCCAGUGAUGUUGGAUGUC [Raanza] | 355
36 | AUGUGGAGCGACGUUUAGAGAAACCGGGAAGGAGCGCGGAUAACCGCAGGUAGGUCGCCUGGUUGCCAGUGAUGUUGGCGACGUG [Exclusion Arg A GF 25] | 87.4
37 | UGUCAUUGGUCUGAUACCAGUUAGACCGAUAGGUCAAAACUGGAGUGAUGUUCCCAAAAUAACCCUUGGCAGCAGACCGAUGACU [TheoBS 3 #SwitchBubble #StaticStem] | 280
38 | UGAUACCAGACGGCCGCCACUCCCGUAAGUCAAAGACUUACGAAGAGAAUCGUCCAGUGAUGUUGGAGGACCGGGUCUGGUAUCU [FiskerMod 11 - Jieux - Exclusion - Tryptophan B] | 680
39 | UGUGUUUACCUGACUCAGUGAUGUUGAGAAGGAGCGUGGGAAACCACAGGUAGGUCGCUCAACCUAAAUUCAGGUGAGCACUAAA | 327
40 | UGAUACCAGACUGAUACCAGCCACAGAGUCAAGACUCUGAUAAAGGUAACCAGUGAUGUUGGCCCUUGGCAGCAGUCUGGUAUCU [TheoBX 16 #SwitchBubble #StaticStem] | 193
41 | GGUGUUGUUUGUGCUGUUUUCUUCGUUUCUCGAGGACCGGUACGGCCGCCACUCGAGUGAUGUUUGGGUAGCGAUCUUUGUUAGU [Bdazzled - #4- Exc. Tryptophan A] | 430
42 | CCAGAAUAAUGAAGAUGAUAAAUUACUGAAGGAGCGCAUAUAGUUGCAGGUAGGUCGCGGUGAAUAAGUAUAGUGAUGUUAUACC [SSArgA.Ad] | 261
43 | AAGUGUGUGGCGGCCGCCACUAGAAUCCAGUGAUGUUGGAGUUAUCAUGUAAAUGAUAAUCAACAUAGGACCGGGCCAUAUAGAA [Same State - Tryptophan B (Freestyle 8)] | 630

Same assay, conditions: Eterna round: R107; input ligand: arginine 13.2 mM

Row | Sequence | apparent KD of K4 kissing-loop reporter [nM]
44 | AUUUUGGUUGAAGGAUAUUCUCCCAUCGACGCGAUAAGAUACUUUGGAAGGUUUGCAGUGAUGUUGGAAGAAGGUCAAAGUUGUA [theeternabot_exclusion_KL_FMN_B_22] | 382
45 | ACGAUCAUGGCAGGAUAUACGAAUGCAUUAGGGCUGCCAGUGAUGUUGGUGGACCGAGGACGUAGAGUAGAAGGGCCGACUUAAA [Leonmain] | 169
46 | GUAUAUUAGGGAGACCUAAUAUAAAUAGAAGGAGCGUAGGAAACUACAGGUAGGUCGCUAAAUAUACAGUGAUGUUGUAUAAUGG [arg a same] | 147
47 | AUGGGCGAGGUAACGUGGAUAUCUCGUCGCAAGGAUAUCUGGAAACAGAGAAGGUGCUACAUUACCGGCAGUGAUGUUGCUGACC | 231
48 | UUAGAGAUCUCAGGAUAUCAGUGAUGUUGUAAUCCAGAUCUGAGAUAGAAUUCUAUCUCAGAUCAAUGAGAAGGGAGAUCUCAUU [AK4.2 Exc FMN B] | 601
49 | CGCCGCAAGGCGGUCCUGCCCACUCCGGAAGGAGCGCCCGCAAGGGCAGGUAGGUCGCCGGAGUGAUGUUCCGGUGGCAGGACCG [#2 Exclusion - Arginine A Attempt #4 (Inspired by Omei)] | 112
50 | UCACAAGUUAACUAGUGAUGUUAGUUAGUACGAGGACCGGUACGGCCGCCACUCGAAAAGUGGUUUUACGGACUUUUGGGCAGGC [theeternabot_sameState_KL_Trp_A_17] | 250
51 | GUAGACAGACUGCAAGCCUAGUCUACAGACUAGGAUAUCAGGAAACUGAGAAGGAGUCUAGUUGCAGUGAUGUUGCAAGAAUAAU [KL-SSFMN-A24] | 135
52 | UAGCUCUACAGAAGGAGCGACGUUCUUAGACAGUGAUGUUGUCUAUAGUGAAUAUAGGAACGUCAGGUAGGUCGCUGUAGAGCUA [Arg B SS t11] | 160
53 | UUAUCACCCUAAGGAUAUAGCUAAGUGAUGUUUAGCUCGUCGCAGGGUAAACACUAGGCCCAAAGGCUAGAAGGUAGCUGGUACC [theeternabot_exclusion_KL_FMN_B_35] | 66.9
